Measurements reported in patent publication US20260042850A1 (LOCKBODY THERAPEUTICS, published 2026).
Numbering of substitutions follows the chain as printed.

B1: MH4 (antibody, IgG4, V domains shown)
VH: QVQLVQSGAEVKKPGASVKVSCKASGYTFTSYTMHWVRQAPGQGLEWMGWINPSGGSTSYAQKFQGRVTMTRDTSTSTVYMELSSLRSEDTAVYYCARQEITTEFDYWGQGTLVTVSS
VL: EIVLTQSPGTLSLSPGERATLSCRASQSVSSYANSYLHWYQQKPGQAPRLLIYRGSTRESGIPDRFSGSGSGTDFTLTISRLEPEDFAVYYCQQSKSEPLTFGGGTKVEIK
B2: Grafted clone (Graft), IGHV1-46/IGKV3-20 CDR graft of 224G11 (antibody, human IgG4, V domains shown)
VH: B1 VH with T28I, S31A, N52K, S54N, G55N, S57L, T58A, S59N, Q99S
VL: B1 VL with S30D, Y36F, G55A, S97E, E98D
notes: also called VH graft/VL graft
B3: 04F09 (antibody, IgG4, V domains shown)
VH: B1 VH with T28I, T33S, G55N, S57L, T58A, S59N, Y107I
VL: B1 VL with S30E, N34Q, E98D
B4: MH6 (antibody, IgG4, V domains shown)
VH: B1 VH
VL: B1 VL with N34Q, S60T, S95Y, K96G, E98S
B5: MH11 (antibody, IgG4, V domains shown)
VH: B1 VH with T33A
VL: B1 VL with N34Q, S60T, K96G, E98S
B6: 07C10 (antibody, IgG4, V domains shown)
VH: B1 VH with T28I, S31A, T33S, W50I, N52K, G55N, S59N, Q99A
VL: B1 VL with S30E, N34Q, S97E
B7: MH3 (antibody, IgG4, V domains shown)
VH: B1 VH with S54N
VL: B1 VL with N34Q, S60T, S95Y, K96G, E98S
notes: also called MH03
B8: MH12 (antibody, IgG4, V domains shown)
VH: B1 VH with T33A
VL: B1 VL with N34Q, S60T, S95Y, K96G, E98S

Each binder was assayed against T1, human C-MET His tagged, monomeric (human, UniProt P08581 25-932) (assay: SPR Biacore, IgG captured, monomeric C-MET-His analyte).
T1 construct: also called monomeric human C-MET; biotinylated human C-MET-His
T1 sequence (P08581 25-932): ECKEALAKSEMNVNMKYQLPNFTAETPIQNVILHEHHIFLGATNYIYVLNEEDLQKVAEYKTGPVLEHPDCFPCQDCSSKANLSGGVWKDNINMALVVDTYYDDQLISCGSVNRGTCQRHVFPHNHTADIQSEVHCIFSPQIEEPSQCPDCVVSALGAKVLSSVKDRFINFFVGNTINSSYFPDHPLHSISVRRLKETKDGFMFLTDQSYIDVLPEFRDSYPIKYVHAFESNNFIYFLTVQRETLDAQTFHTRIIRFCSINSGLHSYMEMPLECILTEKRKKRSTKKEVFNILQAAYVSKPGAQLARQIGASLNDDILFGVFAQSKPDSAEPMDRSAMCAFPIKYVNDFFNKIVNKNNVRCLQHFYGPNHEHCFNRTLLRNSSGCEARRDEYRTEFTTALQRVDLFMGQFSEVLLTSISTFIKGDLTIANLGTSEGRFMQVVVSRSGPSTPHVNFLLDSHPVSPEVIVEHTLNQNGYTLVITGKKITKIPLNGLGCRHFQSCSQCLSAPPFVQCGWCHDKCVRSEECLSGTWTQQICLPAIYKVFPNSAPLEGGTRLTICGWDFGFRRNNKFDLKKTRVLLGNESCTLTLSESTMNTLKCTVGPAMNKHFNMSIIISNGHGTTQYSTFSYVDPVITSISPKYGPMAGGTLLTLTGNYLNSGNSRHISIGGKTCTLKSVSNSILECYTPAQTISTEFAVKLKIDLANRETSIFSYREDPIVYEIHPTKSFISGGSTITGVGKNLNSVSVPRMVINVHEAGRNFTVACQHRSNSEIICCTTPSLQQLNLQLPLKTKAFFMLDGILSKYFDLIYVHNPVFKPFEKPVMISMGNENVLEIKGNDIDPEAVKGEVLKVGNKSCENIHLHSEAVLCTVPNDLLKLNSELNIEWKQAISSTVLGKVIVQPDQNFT
Method: (§1) Affinity (KD) of purified IgGs was determined via SPR with antigen in-solution on a Biacore® 3000 (GE). A mouse anti-human antibody (CH1 specific) was immobilized on a CM5 Sensor Chip to a level of 2000 RU in acetate buffer at pH 4.5 using amine coupling following the Wizard instructions for two channels. One channel was used for background signal correction. The standard running buffer HBS-EP pH 7.4 was used. Regeneration was performed with a single injection of 10 μl of 10 mM Glycine at pH 1.5 at 20 μl/minute. IgG samples were injected for 2 minutes at 50 nM at 30 μl/min followed by and off-rate of 60 seconds. The monomeric antigen (human C-MET His tagged or cynomolgus monkey C-MET His tag) was injected in two fold serial dilutions from 100 nM down to 6 nM, for 2 minutes at 30 μl/min followed by an off-rate of 300 seconds. The obtained sensorgrams were analysed using the Biacore® 3000 evaluation (BIAevaluation) software. The KD was calculated by simultaneous fitting of the association and dissociation phases to a 1:1 Langmuir binding model.

Binder | Kd [nM] | koff [s⁻¹] | kon [M⁻¹ s⁻¹]
B1 | 0.28 | 2.5e-05 | 87000
B2 | 0.37 | 3.7e-05 | 99000
B3 | 0.13 | 1.8e-05 | 140000
B4 | 8.2 | 0.00053 | 65000
B5 | 2.6 | 0.00016 | 62000
B6 | 0.78 | 9.4e-05 | 120000
B7 | 7.6 | 0.00051 | 68000
B8 | 6.5 | 0.00037 | 56000

The binders below were run against T2, cynomolgus monkey C-MET His tag, monomeric (cynomolgus monkey, UniProt A0M8R7 25-932 (Papio anubis entry)) in the same assay as above.
T2 construct: also called monomeric cyno C-MET; cyCMET
T2 sequence (A0M8R7 25-932 S170N/I621T): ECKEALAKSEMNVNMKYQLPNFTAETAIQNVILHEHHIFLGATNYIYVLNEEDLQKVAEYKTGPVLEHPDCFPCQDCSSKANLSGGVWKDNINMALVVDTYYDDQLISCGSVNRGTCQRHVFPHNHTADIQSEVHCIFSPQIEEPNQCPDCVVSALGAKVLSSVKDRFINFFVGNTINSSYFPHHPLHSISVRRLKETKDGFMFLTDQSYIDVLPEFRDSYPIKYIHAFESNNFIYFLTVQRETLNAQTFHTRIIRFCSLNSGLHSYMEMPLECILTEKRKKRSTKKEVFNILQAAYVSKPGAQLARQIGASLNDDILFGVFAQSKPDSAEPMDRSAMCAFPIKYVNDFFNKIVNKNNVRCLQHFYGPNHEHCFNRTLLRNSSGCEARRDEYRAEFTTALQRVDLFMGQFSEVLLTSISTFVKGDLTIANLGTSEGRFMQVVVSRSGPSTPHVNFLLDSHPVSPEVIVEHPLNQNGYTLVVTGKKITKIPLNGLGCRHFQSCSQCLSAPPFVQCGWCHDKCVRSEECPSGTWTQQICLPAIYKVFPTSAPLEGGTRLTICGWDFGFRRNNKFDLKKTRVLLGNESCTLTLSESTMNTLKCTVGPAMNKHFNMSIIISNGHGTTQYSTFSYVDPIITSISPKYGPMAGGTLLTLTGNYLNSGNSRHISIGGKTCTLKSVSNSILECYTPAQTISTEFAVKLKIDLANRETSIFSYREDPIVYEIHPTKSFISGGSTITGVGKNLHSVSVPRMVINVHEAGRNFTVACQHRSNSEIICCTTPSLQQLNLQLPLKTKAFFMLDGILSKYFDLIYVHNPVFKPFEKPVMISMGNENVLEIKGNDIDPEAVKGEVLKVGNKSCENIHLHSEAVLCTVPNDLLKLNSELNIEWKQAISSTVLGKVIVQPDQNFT
Method: as §1

Binder | Kd [nM] | koff [s⁻¹] | kon [M⁻¹ s⁻¹]
B1 | 0.19 | 4.9e-05 | 260000
B2 | 0.22 | 5.2e-05 | 230000
B3 | 0.19 | 5.6e-05 | 290000
B4 | 4 | 0.00063 | 160000
B5 | 1.2 | 0.00018 | 150000
B6 | 3.2 | 0.00021 | 65000
B7 | 4.1 | 0.00062 | 150000
B8 | 4 | 0.00043 | 110000

Each binder was assayed against T2, cynomolgus monkey C-MET His tag, … (assay: SPR Biacore, monomeric cyno against monomeric human C-MET).
Method: as §1

Binder | cyno C-MET affinity, fold of the human C-MET affinity [fold]
B1 | ≤ 2
B3 | ≤ 2

The binders below were run against T3, human C-MET on stably transfected CHO-K1 cells (human, UniProt P08581 25-1390) (assay: flow cytometry, C-MET CHO-K1 cells).
T3 construct: also called hucMET; human C-MET+ CHO-K1 cells
T3 sequence (P08581 25-1390 limits assumed): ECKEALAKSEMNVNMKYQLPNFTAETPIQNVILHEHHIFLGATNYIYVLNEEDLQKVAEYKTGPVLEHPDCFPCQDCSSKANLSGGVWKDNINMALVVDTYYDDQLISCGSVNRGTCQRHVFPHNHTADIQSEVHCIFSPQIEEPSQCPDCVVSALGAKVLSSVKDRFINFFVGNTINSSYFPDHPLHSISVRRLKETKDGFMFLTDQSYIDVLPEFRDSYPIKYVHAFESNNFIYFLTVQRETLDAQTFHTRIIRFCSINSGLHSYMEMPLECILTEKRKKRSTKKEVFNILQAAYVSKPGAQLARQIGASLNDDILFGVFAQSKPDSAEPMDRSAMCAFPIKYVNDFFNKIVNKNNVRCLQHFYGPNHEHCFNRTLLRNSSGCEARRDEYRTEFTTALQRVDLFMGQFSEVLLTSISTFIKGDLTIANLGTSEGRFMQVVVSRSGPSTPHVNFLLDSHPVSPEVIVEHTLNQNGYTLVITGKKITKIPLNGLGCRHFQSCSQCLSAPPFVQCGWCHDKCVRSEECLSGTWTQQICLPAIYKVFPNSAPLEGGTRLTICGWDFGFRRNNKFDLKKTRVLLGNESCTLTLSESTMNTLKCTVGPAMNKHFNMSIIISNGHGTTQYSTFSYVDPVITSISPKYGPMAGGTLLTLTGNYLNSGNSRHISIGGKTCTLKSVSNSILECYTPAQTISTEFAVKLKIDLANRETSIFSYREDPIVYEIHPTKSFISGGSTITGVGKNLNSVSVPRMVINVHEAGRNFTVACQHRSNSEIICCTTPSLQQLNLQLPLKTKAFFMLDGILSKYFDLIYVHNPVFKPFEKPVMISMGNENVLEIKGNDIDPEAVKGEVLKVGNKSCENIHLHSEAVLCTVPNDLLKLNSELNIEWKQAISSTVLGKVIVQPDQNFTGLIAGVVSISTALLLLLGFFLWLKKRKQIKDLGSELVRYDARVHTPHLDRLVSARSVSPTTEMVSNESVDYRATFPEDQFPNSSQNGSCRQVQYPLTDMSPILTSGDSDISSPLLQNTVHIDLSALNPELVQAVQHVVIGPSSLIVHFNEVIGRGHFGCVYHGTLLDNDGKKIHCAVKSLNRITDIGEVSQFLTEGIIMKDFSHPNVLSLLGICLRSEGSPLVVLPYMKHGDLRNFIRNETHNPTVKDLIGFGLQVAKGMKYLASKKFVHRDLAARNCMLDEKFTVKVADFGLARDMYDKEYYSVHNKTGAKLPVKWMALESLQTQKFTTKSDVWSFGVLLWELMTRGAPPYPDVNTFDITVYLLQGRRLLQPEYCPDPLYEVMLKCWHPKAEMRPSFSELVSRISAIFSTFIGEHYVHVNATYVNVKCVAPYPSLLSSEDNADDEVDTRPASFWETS
Method: (§2) Purified IgGs were tested in FACs for binding to human and cyno C-MET expressed on CHO-K1 stable cell lines and CHO-K1 wild-type cells. The IgG samples were titrated in three-fold serial dilutions starting at 500 nM to 0.08 nM. Binding of IgGs was detected with a mouse anti-human IgG conjugated to FITC. Results were analyzed by examining the Mean Fluorescence Intensity (MFI) of 10000 cells per sample in the BL-1 channel detector of a flow cytometer (Attune™ NxT Acoustic Focusing Cytometer, Invitrogen/ThermoFisher Scientific).

Binder | EC50 [nM]
B1 | 1.72
B3 | 12.4
B4 | 1.33
B5 | 1.68
B6 | 9.59
B7 | 1.66
B8 | 1.25

These binders were tested against T4, cynomolgus monkey C-MET on stably transfected CHO-K1 cells (cynomolgus monkey, UniProt A0M8R7 25-1381 (Papio anubis entry)) (assay: flow cytometry, C-MET CHO-K1 cells).
T4 construct: also called cycMET; cyno C-MET+ CHO-K1 cells
T4 sequence (A0M8R7 25-1381 S170N/I621T limits assumed): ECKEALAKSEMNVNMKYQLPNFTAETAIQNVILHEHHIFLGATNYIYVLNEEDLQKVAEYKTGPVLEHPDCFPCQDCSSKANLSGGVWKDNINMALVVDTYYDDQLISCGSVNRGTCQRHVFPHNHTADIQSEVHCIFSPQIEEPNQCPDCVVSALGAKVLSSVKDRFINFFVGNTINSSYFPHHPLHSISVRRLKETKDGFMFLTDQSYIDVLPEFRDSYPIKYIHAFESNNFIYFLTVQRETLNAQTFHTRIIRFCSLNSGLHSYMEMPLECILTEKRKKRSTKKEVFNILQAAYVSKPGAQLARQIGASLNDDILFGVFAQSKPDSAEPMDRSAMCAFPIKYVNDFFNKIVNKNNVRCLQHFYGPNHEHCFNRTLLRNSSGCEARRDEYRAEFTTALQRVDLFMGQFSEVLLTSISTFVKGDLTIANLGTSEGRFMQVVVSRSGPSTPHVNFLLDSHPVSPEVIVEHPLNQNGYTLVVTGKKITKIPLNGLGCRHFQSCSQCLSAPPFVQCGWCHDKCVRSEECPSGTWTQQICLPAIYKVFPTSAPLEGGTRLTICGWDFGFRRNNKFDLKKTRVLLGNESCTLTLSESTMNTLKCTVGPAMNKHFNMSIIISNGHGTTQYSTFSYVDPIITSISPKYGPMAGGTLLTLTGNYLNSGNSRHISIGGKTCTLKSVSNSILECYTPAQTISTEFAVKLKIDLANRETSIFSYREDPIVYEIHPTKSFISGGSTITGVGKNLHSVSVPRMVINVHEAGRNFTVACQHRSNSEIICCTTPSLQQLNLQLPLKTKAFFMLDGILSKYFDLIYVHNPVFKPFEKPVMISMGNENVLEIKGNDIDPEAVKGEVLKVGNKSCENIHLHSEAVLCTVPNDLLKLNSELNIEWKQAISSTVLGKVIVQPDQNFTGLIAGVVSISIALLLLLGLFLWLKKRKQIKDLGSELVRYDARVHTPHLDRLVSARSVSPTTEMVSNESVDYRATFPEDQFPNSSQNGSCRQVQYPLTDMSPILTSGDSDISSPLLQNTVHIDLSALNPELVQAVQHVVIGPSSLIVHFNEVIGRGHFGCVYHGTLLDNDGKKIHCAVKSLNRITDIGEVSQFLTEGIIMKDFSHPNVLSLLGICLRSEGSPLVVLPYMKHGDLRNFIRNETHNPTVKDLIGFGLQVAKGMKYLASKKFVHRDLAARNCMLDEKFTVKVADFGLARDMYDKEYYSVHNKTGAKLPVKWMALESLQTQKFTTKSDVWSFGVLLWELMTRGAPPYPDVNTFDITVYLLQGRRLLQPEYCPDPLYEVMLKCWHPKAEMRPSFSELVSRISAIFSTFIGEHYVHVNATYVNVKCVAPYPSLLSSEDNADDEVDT
Method: as §2

Binder | EC50 [nM]
B1 | 0.48
B3 | 0.64
B4 | 0.72
B5 | 0.69
B6 | 2.82
B7 | 0.27
B8 | 0.51

Target: T3, human C-MET on stably transfected …
Test: flow cytometry, C-MET CHO-K1 cells
Remark: another data set of the same source
Method: as §2
(§3) Antibodies to C-MET were analysed for concentration-dependent binding at the cell surface via flow cytometry. CHO-K1 cells were stably transfected with either human or cyno C-MET full-length cDNAs. Anti-C-MET IgGs and an isotype control IgG4(S228P) were then all tested in IgG4(S228P) format, over a concentration range of 500-0.08 nM for binding to human (FIG. 5A) and cyno (FIG. 5B) CHO-K1 cells.

Binder | maximum MFI, fold over Isotype IgG4 background [fold]
B1 | > 10
B2 | > 10
B3 | > 10
B4 | > 10
B5 | > 10
B6 | > 10
B7 | > 10
B8 | > 10

Target: T4, cynomolgus monkey C-MET on stably …
Test: flow cytometry, C-MET CHO-K1 cells
Remark: another data set of the same source
Method: as §2, §3

Binder | maximum MFI, fold over Isotype IgG4 background [fold]
B1 | > 10
B2 | > 10
B3 | > 10
B4 | > 10
B5 | > 10
B6 | > 10
B7 | > 10
B8 | > 10
